Article PMC7105311, “Structure and function of Bs164 β-mannosidase from Bacteroides salyersiae the founding member of glycoside hydrolase family GH164” (The Journal of Biological Chemistry, 2019)

Target: Bs164 β-mannosidase from Bacteroides salyersiae CL02T12C01 (His6 tag removed) (Bacteroides salyersiae CL02T12C01)
Assay: SEC-MALS; Superdex S200 10/300, 80 mM MES (pH 5.5), 200 mM NaCl, room temperature (20 ± 2 °C), 100 μl injected at 5 mg/ml

Work on “Bs164 β-mannosidase from Bacteroides salyersiae CL02T12C01 (His6 tag removed) (enzyme)” yielded a stoichiometry N of 3.
